B1: Mitochondrial import receptor subunit TOM70 (Homo sapiens), O94826 (parent)
chain: MAASKPVEAAVVAAAVPSSGSGVGGGGTAGPGTGGLPRWQLALAVGAPLLLGAGAIYLWSRQQRRREARGRGDASGLKRNSERKTPEGRASPAPGSGHPEGPGAHLDMNSLDRAQAAKNKGNKYFKAGKYEQAIQCYTEAISLCPTEKNVDLSTFYQNRAAAFEQLQKWKEVAQDCTKAVELNPKYVKALFRRAKAHEKLDNKKECLEDVTAVCILEGFQNQQSMLLADKVLKLLGKEKAKEKYKNREPLMPSPQFIKSYFSSFTDDIISQPMLKGEKSDEDKDKEGEALEVKENSGYLKAKQYMEEENYDKIISECSKEIDAEGKYMAEALLLRATFYLLIGNANAAKPDLDKVISLKEANVKLRANALIKRGSMYMQQQQPLLSTQDFNMAADIDPQNADVYHHRGQLKILLDQVEEAVADFDECIRLRPESALAQAQKCFALYRQAYTGNNSSQIQAAMKGFEEVIKKFPRCAEGYALYAQALTDQQQFGKADEMYDKCIDLEPDNATTYVHKGLLQLQWKQDLDRGLELISKAIEIDNKCDFAYETMGTIEVQRGNMEKAIDMFNKAINLAKSEMEMAHLYSLCDAAHAQTEVAKKYGLKPPTL
B2: Mitochondrial import receptor subunit TOM70 (Homo sapiens), O94826 (parent)
chain: B1 chain
partner: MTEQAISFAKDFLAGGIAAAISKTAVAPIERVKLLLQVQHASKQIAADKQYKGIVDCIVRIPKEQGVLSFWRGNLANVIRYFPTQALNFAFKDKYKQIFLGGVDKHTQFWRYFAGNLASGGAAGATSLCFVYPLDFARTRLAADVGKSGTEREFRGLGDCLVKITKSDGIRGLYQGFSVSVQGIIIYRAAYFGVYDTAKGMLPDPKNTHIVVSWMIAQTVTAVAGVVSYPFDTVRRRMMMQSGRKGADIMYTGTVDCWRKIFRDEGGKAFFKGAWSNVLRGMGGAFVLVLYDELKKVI

Variants of: B1
Conditions: with hs90b_human HSP90AB1, P08238
Sequence of hs90b_human HSP90AB1, P08238 (P08238 whole entry): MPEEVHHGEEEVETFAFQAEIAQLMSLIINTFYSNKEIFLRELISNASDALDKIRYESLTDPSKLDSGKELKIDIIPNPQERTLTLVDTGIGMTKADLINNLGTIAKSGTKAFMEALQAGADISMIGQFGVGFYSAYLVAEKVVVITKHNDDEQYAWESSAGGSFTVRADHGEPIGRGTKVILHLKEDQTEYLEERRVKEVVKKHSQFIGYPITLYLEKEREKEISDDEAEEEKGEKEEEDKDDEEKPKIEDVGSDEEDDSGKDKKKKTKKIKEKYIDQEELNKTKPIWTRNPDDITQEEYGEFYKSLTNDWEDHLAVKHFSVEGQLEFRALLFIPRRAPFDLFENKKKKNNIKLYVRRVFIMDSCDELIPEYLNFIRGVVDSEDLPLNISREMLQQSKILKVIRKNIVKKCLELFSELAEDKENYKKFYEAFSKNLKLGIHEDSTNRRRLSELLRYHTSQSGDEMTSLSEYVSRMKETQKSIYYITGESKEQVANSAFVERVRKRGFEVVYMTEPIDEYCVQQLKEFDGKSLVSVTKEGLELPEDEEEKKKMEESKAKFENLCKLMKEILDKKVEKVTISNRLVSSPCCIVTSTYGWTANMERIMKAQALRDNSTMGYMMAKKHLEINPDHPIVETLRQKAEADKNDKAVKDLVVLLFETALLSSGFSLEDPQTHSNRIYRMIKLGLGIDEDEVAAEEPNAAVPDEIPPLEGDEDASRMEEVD

| Variant | effect of a mutation on the interaction |
| --- | --- |
| R192A | decreasing interaction strength |
| E477A | decreasing interaction strength |

Variants of: B2
Conditions: with adt3_human SLC25A6, P12236

| Variant | effect of a mutation on the interaction |
| --- | --- |
| E477A | decreasing interaction strength |
